The labels stand for the following.
B1: hACI-7067-1101C8-Ab2_H8L1 (antibody, V domains shown)
VH: EVQLVESGGGLVQPGGSLKLSCAASGFSFNIYAMNWVRQAPGKGLEWVGRIRSKSNAYATYYAASVKGRFTISRDDSKNTLYLQMNNLKTEDTAVYYCTRVGLRFYALDYWGQGTLVTVSS
VL: DVVMTQSPLSLPVTLGQPASISCRSSQSIVHSNANTYLEWYQQRPGQSPRLLIYKVSNRFSGVPDRFSGSGSGTDFTLKISRVEAEDLGVYYCFQGSQGPLTFGQGTKLEIK
notes: VH on human IgG1 constant, VL on human kappa constant
B2: hACI-7067-1101C8-Ab2_H9L1 (antibody, V domains shown)
VH: B1 VH with S28T, L108M
VL: B1 VL
notes: as for B1
B3: hACI-7067-1101C8-Ab2_H12L2 (antibody, V domains shown)
VH: B1 VH with S28T, L81A
VL: B1 VL with I29L
notes: as for B1
B4: hACI-7067-1101C8-Ab2_H10L1 (antibody, V domains shown)
VH: B1 VH with S28T
VL: B1 VL
notes: as for B1
B5: hACI-7067-1101C8-Ab2_H5L1 (antibody, V domains shown)
VH: B1 VH with L108M
VL: B1 VL
notes: as for B1
B6: hACI-7067-1101C8-Ab2_H10L2 (antibody, V domains shown)
VH: B1 VH with S28T
VL: B1 VL with I29L
notes: as for B1
B7: hACI-7067-1101C8-Ab2_H11L1 (antibody, V domains shown)
VH: B1 VH with S28T, L81A, L108M
VL: B1 VL
notes: as for B1
B8: hACI-7067-1101C8-Ab2_H11L2 (antibody, V domains shown)
VH: B1 VH with S28T, L81A, L108M
VL: B1 VL with I29L
notes: as for B1
B9: hACI-7067-1101C8-Ab2_H12L1 (antibody, V domains shown)
VH: B1 VH with S28T, L81A
VL: B1 VL
notes: as for B1
B10: hACI-7067-1101C8-Ab2_H9L2 (antibody, V domains shown)
VH: B1 VH with S28T, L108M
VL: B1 VL with I29L
notes: as for B1
B11: hACI-7067-1101C8-Ab2_H2L1 (antibody, V domains shown)
VH: B1 VH with T99V, L108M
VL: B1 VL
notes: as for B1
B12: hACI-7067-1101C8-Ab2_H6L1 (antibody, V domains shown)
VH: B1 VH with G49A, T99V, L108S
VL: B1 VL
notes: as for B1
B13: hACI-7067-1101C8-Ab2_H1L1 (antibody, V domains shown)
VH: B1 VH with G49A, T99V, L108M
VL: B1 VL
notes: as for B1
B14: hACI-7067-1101C8-Ab2_H3L3 (antibody, V domains shown)
VH: B1 VH with L81A, T99V, L108M
VL: B1 VL with Y41F
notes: as for B1
B15: hACI-7067-1101C8-Ab2_H2L4 (antibody, V domains shown)
VH: B1 VH with T99V, L108M
VL: B1 VL with I29L, Y41F
notes: as for B1
B16: hACI-7067-1101C8-Ab2_H4L1 (antibody, V domains shown)
VH: B1 VH with S28T, T99V, L108M
VL: B1 VL
notes: as for B1
B17: hACI-7067-1101C8-Ab2_H4L4 (antibody, V domains shown)
VH: B1 VH with S28T, T99V, L108M
VL: B1 VL with I29L, Y41F
notes: as for B1
B18: hACI-7067-1101C8-Ab2_H3L1 (antibody, V domains shown)
VH: B1 VH with L81A, T99V, L108M
VL: B1 VL
notes: as for B1
B19: hACI-7067-1101C8-Ab2_H5L3 (antibody, V domains shown)
VH: B1 VH with L108M
VL: B1 VL with Y41F
notes: as for B1
B20: hACI-7067-1101C8-Ab2_H5L4 (antibody, V domains shown)
VH: B1 VH with L108M
VL: B1 VL with I29L, Y41F
notes: as for B1
B21: hACI-7067-1101C8-Ab2_H3L2 (antibody, V domains shown)
VH: B1 VH with L81A, T99V, L108M
VL: B1 VL with I29L
notes: as for B1
B22: hACI-7067-1101C8-Ab2_H4L2 (antibody, V domains shown)
VH: B1 VH with S28T, T99V, L108M
VL: B1 VL with I29L
notes: as for B1
B23: hACI-7067-1101C8-Ab2_H2L3 (antibody, V domains shown)
VH: B1 VH with T99V, L108M
VL: B1 VL with Y41F
notes: as for B1
B24: hACI-7067-1101C8-Ab2_H1L4 (antibody, V domains shown)
VH: B1 VH with G49A, T99V, L108M
VL: B1 VL with I29L, Y41F
notes: as for B1
B25: hACI-7067-1101C8-Ab2_H2L2 (antibody, V domains shown)
VH: B1 VH with T99V, L108M
VL: B1 VL with I29L
notes: as for B1
B26: hACI-7067-1101C8-Ab2_H5L2 (antibody, V domains shown)
VH: B1 VH with L108M
VL: B1 VL with I29L
notes: as for B1
B27: hACI-7067-1101C8-Ab2_H1L2 (antibody, V domains shown)
VH: B1 VH with G49A, T99V, L108M
VL: B1 VL with I29L
notes: as for B1
B28: hACI-7067-1101C8-Ab2_H4L3 (antibody, V domains shown)
VH: B1 VH with S28T, T99V, L108M
VL: B1 VL with Y41F
notes: as for B1
B29: hACI-7067-1101C8-Ab2_H3L4 (antibody, V domains shown)
VH: B1 VH with L81A, T99V, L108M
VL: B1 VL with I29L, Y41F
notes: as for B1
B30: hACI-7067-1101C8-Ab2_H1L3 (antibody, V domains shown)
VH: B1 VH with G49A, T99V, L108M
VL: B1 VL with Y41F
notes: as for B1
B31: hACI-7067-1101C8-Ab2_H7L1 (antibody, V domains shown)
VH: B1 VH with G49A, T99V, L108T
VL: B1 VL
notes: as for B1

Where a chain is given by its changes, count along the chain named.

The first experiment has as its target T1, alpha-synuclein fibrils (Homo sapiens (Human), UniProt P37840 1-140). The experiment in a line: SPR, mAb captured, 1:1 model. (SPR reads the build-up and loss of mass on a sensor chip optically.)
Description: (§1) Non-covalent immobilization of alpha-synuclein antibodies was performed using a target immobilization method of 200 response units (RU). […] Binding affinity of alpha-synuclein antibodies to monomeric or fibrillar alpha-synuclein species was performed using a single-cycle kinetics method. […] A dissociation phase of 900 sec followed the final 50 nM injection. Regeneration of the sensor to the goat anti-human antibody layer was achieved using 3 regenerations of 10 mM Glycine pH 1.7. […] Regeneration of the sensor to the goat anti-human antibody layer was achieved using 3 regenerations of 10 mM Glycine pH 1.7. Results obtained from single-cycle kinetics were evaluated by Biacore K8 evaluation software with 1:1 binding homogenous Langmuir model (with a global Rmax) with Cycle 5 as a blank subtraction. The following kinetic parameters were obtained: on-rate (ka), off-rate (kd), affinity constant (KD, ratio of kd by ka), maximum response (Rmax), and goodness of fit (Chi2).
(§2) Kinetic constants were determined from 1:1 homogenous binding models for binding versus the aggregated form, while a steady state fit was used to determine KD values versus the monomeric form of alpha-synuclein.
For orientation: Kd means the concentration at which binding is half-saturated. The low end stands for a tighter complex, the high end for a looser complex. Broadly, the koff is the rate constant with which the complex falls apart. Read a high koff as fast dissociation. In general, kon refers to the second-order rate constant of association. Read a low kon as slower complex formation. Take B1: binding was put at a Kd of 2 nM, the koff is 3.6e-05 s⁻¹ and the kon was 17600 M⁻¹ s⁻¹.
In turn, B2 came in with a Kd of 0.9 nM, a koff of 2.25e-05 s⁻¹ and an on-rate (kon) of 23900 M⁻¹ s⁻¹.
The molecule B3 displayed a Kd of 13.7 nM, a koff of 0.000142 s⁻¹ and a kon of 10400 M⁻¹ s⁻¹.
In turn, B4 came in with a kon of 11500 M⁻¹ s⁻¹.
With B5, the Kd is 1 nM, the koff was determined as 2.18e-05 s⁻¹ and the kon was 22000 M⁻¹ s⁻¹.

For another experiment, the target named is T2, human full-length alpha-synuclein (human, UniProt P37840 1-140). Description: SPR, mAb captured, steady-state fit.
Description: as §1, §2
B6 registered a Kd of 35.1 nM.
The same measure, in the same setting: under B1 stands 40 nM; under B7, 48 nM.
Molecule B8 displayed a dissociation constant (Kd) of 80.1 nM.
For B2, the dissociation constant Kd amounted to 18.2 nM. This Kd is about 4.4-fold lower than that of the molecule before.
The same measure, in the same setting: under B3 stands 28.7 nM; under B9, 64.4 nM.
Molecule B10 registered a Kd of 66.9 nM.
Still for that read-out and setting: under B4 stands 48.2 nM; under B5, 20.1 nM.

A further experiment concerns the target T2, human full-length alpha-synuclein. The experiment in a line: SPR, 100 nM monomer, relative to chimeric.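 Further: SPR with antibody variants captured via anti-human Fc IgG on an amine-coupled chip, isotype IgG1 reference channel subtracted, dissociation rate fitted by 1:1 or heterogeneous ligand model.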
Description: (§3) Flow channels (Fc) 1-8 were activated with a fresh solution of EDC/NHS (Amine Coupling Kit, 1:1 ratio of both reagents, GE Healthcare Life Sciences, BR100050). […] The chip was deactivated by 1 M ethanolamine-HCl (GE Healthcare Life Sciences, BR100050) at a flow rate of 10 μL/min for 420 s.
(§4) A human IgG1 isotype control diluted in running buffer 1×HBS-EP+ (GE Healthcare Life Sciences, BR100669) was captured onto Fc1 via anti-human Fc IgG at a flow rate of 10 μL/min. […] 10 mM glycine pH 1.5 as regeneration buffer was injected following every dissociation phase.
(§5) The data for reference channel Fc1 and buffer channel were subtracted to generate the sensorgrams. The experimental data was fitted by 1:1 binding model or heterogeneous ligand model.
B11 showed a Relative koff of 2.
B12 displayed a Relative koff of 0.3.
In turn, B13 had a Relative koff of 1.3.
The molecule B6 registered a Relative koff of 0.2.
B1 gave a Relative koff of 0.2.
In turn, B14 had a Relative koff of 0.1.
Same read-out and setting: next, B15: 0.1; B16: 1.9; B7: 0.8.
Same read-out and setting: under B8 stands 0.8; under B17, 0.1; under B18, 1.
Consider B19, for which the Relative koff amounted to 0.2.
The same measure, in the same setting: under B20 stands 0.1.
With B21, the Relative koff amounted to 0.6.
Molecule B2 showed a Relative koff of 1.3.
In the case of B22, the Relative koff stood at 1.1.
For the molecule B3, the Relative koff was determined as 0.1.
In the case of B23, the Relative koff stood at 0.2.
B24: the Relative koff was 0.1.
The same measure, in the same setting: under B9 stands 0.2.
In turn, B25 yielded a Relative koff of 1.1.
Still for that read-out and setting: next, B10: 0.8.
B26 registered a Relative koff of 0.8.
B27 yielded a Relative koff of 0.6.
Consider B4, for which the Relative koff is 0.2.
Molecule B28 displayed a Relative koff of 0.2.
Same read-out and setting: under B29 stands 0.1; under B30, 0.2.
Turning to B5, the Relative koff stood at 1.1.

A further experiment has as its target T1, alpha-synuclein fibrils. Description: SPR, 450 nM aggregates, relative to chimeric.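 Further: surface plasmon resonance with anti-human Fc capture, human IgG1 isotype control channel and buffer run subtracted, dissociation rates fitted by 1:1 or heterogeneous ligand binding model.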
Description: as §3, §4, §5
In turn, B11 had a Relative koff of 0.5.
On the same count and under the same terms, next, B12: 1; B13: 851; B6: 0.8.
For B1, the Relative koff is 1.1.
B14 registered a Relative koff of 0.2.
For the molecule B31, the Relative koff worked out at 1420.
Take B15: the Relative koff was 0.2.
B16 gave a Relative koff of 0.5.
On the same count and under the same terms, under B7 stands 62; under B8, 5.4; under B17, 0.3.
The same measure, in the same setting: under B18 stands 213.
B19 returned a Relative koff of 0.2.
Same read-out and setting: next, B20: 0.2.
The molecule B21 registered a Relative koff of 1230.
Same read-out and setting: next, B2: 5.5; B22: 1.6; B3: 0.3.
Still for that read-out and setting: under B23 stands 0.3.
Regarding B24, the Relative koff worked out at 0.3.
For B9, the Relative koff was 1.
Turning to B25, the Relative koff stood at 1.9.
B10 yielded a Relative koff of 2.3.
In turn, B26 gave a Relative koff of 1.4.
B27 gave a Relative koff of 131.
B4 yielded a Relative koff of 1.7.
B28 had a Relative koff of 0.3.
In turn, B29 returned a Relative koff of 0.3.
The molecule B30 returned a Relative koff of 0.3.
Take B5: the Relative koff was 1.5.

The values are drawn from patent US20220298231A1 (AC IMMUNE, published 2022).
